Experimental data taken from patent US20190343962A1 (GENAGON THERAPEUTICS, published 2019).

T1: native CLPTM1 in membrane-permeabilised O-876 cells (Homo sapiens (Human), UniProt O96005 2-669)
T1 construct: The protein was stained inside permeabilised cells, not only at the surface; also called native target; 0-876 cells expressing native CLPTM1
T1 sequence: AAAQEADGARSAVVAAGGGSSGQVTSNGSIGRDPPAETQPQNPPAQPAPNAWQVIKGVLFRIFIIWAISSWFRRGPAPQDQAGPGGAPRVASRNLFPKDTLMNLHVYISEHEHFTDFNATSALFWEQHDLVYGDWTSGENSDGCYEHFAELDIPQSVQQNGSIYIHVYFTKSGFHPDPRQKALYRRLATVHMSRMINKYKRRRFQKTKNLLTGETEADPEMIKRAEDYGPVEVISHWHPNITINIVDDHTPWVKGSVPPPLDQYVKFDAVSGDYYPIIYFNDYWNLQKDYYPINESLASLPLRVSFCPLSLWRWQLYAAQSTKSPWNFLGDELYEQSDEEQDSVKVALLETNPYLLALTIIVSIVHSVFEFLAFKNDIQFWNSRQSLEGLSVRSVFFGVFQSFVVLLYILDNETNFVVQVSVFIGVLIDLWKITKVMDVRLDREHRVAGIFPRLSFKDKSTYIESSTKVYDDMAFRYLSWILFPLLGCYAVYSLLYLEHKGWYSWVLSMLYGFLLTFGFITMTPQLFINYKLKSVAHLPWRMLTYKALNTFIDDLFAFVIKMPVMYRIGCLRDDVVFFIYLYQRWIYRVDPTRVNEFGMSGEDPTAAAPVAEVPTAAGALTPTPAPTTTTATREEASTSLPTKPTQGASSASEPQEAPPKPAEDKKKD

B1: anti-CLPTM1 antibody 59D04 (format in the assay not stated) (antibody, V domains shown)
VH: EVQLVESGGGVVQPGRSLRLSCAASGFTFSTYAMHWVRQAPGKGLEWVAVISYDGTNKYYADSVKGRFTIFRDNSKNTLYLQMNSLRAEDTAVYYCGSGSYWGQGTLVTVSS
VL: QPVLTQPASVSGSPGQSITISCTGTSSDVGGYNYVSWYQQHPGKAPKLMIYEVTNRPSGVSDRFSGSKSGNTASLTISGLQAEDEADYYCSSYKSSNTVVFGGGTKVTVL
notes: Fully human antibody derived by phage display
B2: anti-CLPTM1 mouse monoclonal antibody 7G12 (antibody, IgG1, V domains shown)
VH: QVQLQQSGTELVRPGTSVKVSCKASGYAFTNYLIEWVKQRPGQGLEWIGVINPGSGGTRYNEKFKGKATLTADKSSTTAHMQLSSLTSDDSAVYCARWGGNYSGYAMDYWGQGTSVTVSS
VL: QIVLTQSPVIMSASPGEKVTITCSASSSVSYMHWFQQKPGTSPKLWIYSTSNLASGVPARFSGSGSGTSYSLTISRMEAEDAATYYCQQRSSYPPTFGAGTKL
notes: Mouse monoclonal, IgG1 heavy chain, kappa light chain; The printed VL ends in 'TKL.' and may be incomplete; also called CLPTM1 clone 7G12 (IgG1)

Tests used:
[1] = biological target: native CLPTM1 in membrane-permeabilised O-876 cells (Homo sapiens (Human)) (UniProt O96005); experiment: flow cytometry on permeabilised O-876 cells; half-maximal binding
[2] = biological target: native CLPTM1 in membrane-permeabilised O-876 cells (Homo sapiens (Human)) (UniProt O96005); experiment: flow cytometry on permeabilised O-876 cells, 10x dilution series; half-maximal binding
[3] = biological target: T1, native CLPTM1 in membrane-permeabilised …; experiment: as above
Protocol: CLPTM1 binding in permeabilised 0-876 cells expressing native CLPTM1 was measured in a 10× dilution series. […] The AbCam antibody also retained greater than 50% of its maximum binding at 0.1 μg/ml. The 59D04 antibody retained greater than 50% of its maximum binding at 1 μg/ml, whilst the Santa Cruz antibody had less than 50% of its maximum binding at this level.
Affinity of antibodies was determined by finding the half-maximal binding on the native target in a flow cytometry assay. Since the native target is found inside most cells and rarely on the cell surface, the assay was performed using plasma membrane-permeabilised cells, an intra-cellular staining protocol. Using the native target is more applicable when evaluating and comparing various antibodies as it is the true antigen to be bound in a therapeutic setting in vivo. 0-876 cells were permeabilised with BD-fix and permeabilisation buffer (554722 BD-Biosciences). Antibody at various concentrations was incubated with cells for 30 minutes at +4° C., then washed twice with wash buffer (BD-Biosciences 554723). […] Three washes followed and fluorescence intensity in cells was quantified by FACS CantoII in PBS with cells in 2% FCS buffer.

[4] = biological target: T1, native CLPTM1 in membrane-permeabilised …; experiment: flow cytometry on permeabilised O-876 cells; half-maximal binding
Protocol: (§1) Affinity of antibodies was determined by finding the half-maximal binding on the native target in a flow cytometry assay. Since the native target is found inside most cells and rarely on the cell surface, the assay was performed using plasma membrane-permeabilised cells, an intra-cellular staining protocol. Using the native target is more applicable when evaluating and comparing various antibodies as it is the true antigen to be bound in a therapeutic setting in vivo. 0-876 cells were permeabilised with BD-fix and permeabilisation buffer (554722 BD-Biosciences). Antibody at various concentrations was incubated with cells for 30 minutes at +4° C., then washed twice with wash buffer (BD-Biosciences 554723). Secondary antibodies a-mouse IgG-PE (Molecular Probes) was used for mouse monoclonal antibodies according to manufacturer's instructions and a-rabbit-IgG-PE (Molecular Probes) for rabbit monoclonal antibody (Abcam ERP8800). Three washes followed and fluorescence intensity in cells was quantified by FACS CantoII in PBS with cells in 2% FCS buffer.
(§2) The assay was performed on O-876 cancer cell line.

[5] = biological target: T1, native CLPTM1 in membrane-permeabilised …; experiment: flow cytometry on permeabilised O-876 cells, antibody dilution series, PE-labelled secondary antibody
Protocol: as §1, §2

| Molecule | EC50 [1] [µg/mL] | EC50 [2] [µg/mL] | EC50 [3] [µg/mL] | EC50 [4] [µg/mL] | Kd [5] [nM] |
| --- | --- | --- | --- | --- | --- |
| rabbit monoclonal anti-CLPTM1 antibody EPR8800 (RabMab, Abcam) | < 1 | < 0.1 |  |  |  |
| B1 |  |  | < 1 |  |  |
| B2 |  |  | < 0.1 | < 1 | < 1 |
